{"source": "patent US20260374820", "about": "(published 2026)", "note": "Bridges are numbered along the chain shown (N, C = ends). Where no end group is shown, it is not given here."}
{"biological_target": "T1, human MuSK (human, UniProt O15146)", "T1 chain": "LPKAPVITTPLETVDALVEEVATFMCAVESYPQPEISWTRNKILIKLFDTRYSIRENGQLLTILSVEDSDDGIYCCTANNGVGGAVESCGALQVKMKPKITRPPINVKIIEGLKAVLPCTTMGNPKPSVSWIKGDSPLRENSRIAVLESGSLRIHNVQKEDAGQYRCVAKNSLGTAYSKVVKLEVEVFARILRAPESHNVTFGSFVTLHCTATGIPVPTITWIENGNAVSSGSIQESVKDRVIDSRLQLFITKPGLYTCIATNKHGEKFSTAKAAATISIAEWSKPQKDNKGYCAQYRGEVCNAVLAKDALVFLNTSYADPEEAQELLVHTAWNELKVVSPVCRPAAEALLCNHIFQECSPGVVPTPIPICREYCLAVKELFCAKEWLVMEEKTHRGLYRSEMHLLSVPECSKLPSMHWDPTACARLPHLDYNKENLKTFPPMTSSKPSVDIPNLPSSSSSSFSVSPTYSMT", "assay": "SPR", "units": {"Kd": "nM"}}
{"binder": "MuSK9 PEG11 dimer (not fully specified (N-terminus, C-terminus, bridges); cysteine pairing not given here; also: homodimer via Bis-Mal-dPEG11 linker, attachment not given here) chain 1: YWYLQPGYVNIVTSYHC chain 2: YWYLQPGYVNIVTSYHC", "Kd": 3.9}
{"binder": "MuSK7 PEG3 dimer (not fully specified (N-terminus, C-terminus, bridges); cysteine pairing not given here; also: homodimer via PEG3 linker, attachment not given here) chain 1: YPSYHTNVVASLKRC chain 2: YPSYHTNVVASLKRC", "Kd": 0.62}
{"binder": "MuSK1Ac Term PEG11 dimer (protein, also: homodimer via terminal PEG11 linker, terminus not given here, name suffix Ac, meaning not given here) chain 1: YLPEFSWPESFVLFLRQRQRQLGRGAE chain 2: YLPEFSWPESFVLFLRQRQRQLGRGAE", "Kd": 3.6}
{"binder": "MuSK1Ac PEG11 dimer (protein, also: homodimer via PEG11 linker, attachment not given here, name suffix Ac, meaning not given here) chain 1: YLPEFSWPESFVLFLRQRQRQLGRGAE chain 2: YLPEFSWPESFVLFLRQRQRQLGRGAE", "Kd": 1.5}
{"binder": "MuSK1Ac Term PEG3 dimer (protein, also: homodimer via terminal PEG3 linker, terminus not given here, name suffix Ac, meaning not given here) chain 1: YLPEFSWPESFVLFLRQRQRQLGRGAE chain 2: YLPEFSWPESFVLFLRQRQRQLGRGAE", "Kd": 6}
{"binder": "MuSK9 PEG3 dimer (not fully specified (N-terminus, C-terminus, bridges); cysteine pairing not given here; also: homodimer via PEG3 linker, attachment not given here) chain 1: YWYLQPGYVNIVTSYHC chain 2: YWYLQPGYVNIVTSYHC", "Kd": 2.1}
{"binder": "MuSK4 PEG11 dimer (not fully specified (N-terminus, C-terminus, bridges); cysteine pairing not given here; also: homodimer via Bis-Mal-dPEG11 linker, attachment not given here) chain 1: YFPTNVVSLLKSC chain 2: YFPTNVVSLLKSC", "Kd": 6.9}
{"binder": "MuSK7 PEG11 dimer (not fully specified (N-terminus, C-terminus, bridges); cysteine pairing not given here; also: homodimer via Bis-Mal-dPEG11 linker, attachment not given here) chain 1: YPSYHTNVVASLKRC chain 2: YPSYHTNVVASLKRC", "Kd": 1.3}
{"binder": "MuSK4 PEG3 dimer (not fully specified (N-terminus, C-terminus, bridges); cysteine pairing not given here; also: homodimer via PEG3 linker, attachment not given here) chain 1: YFPTNVVSLLKSC chain 2: YFPTNVVSLLKSC", "Kd": 6.8}
{"binder": "MuSK1Ac PEG3 dimer (protein, also: homodimer via PEG3 linker, attachment not given here, name suffix Ac, meaning not given here) chain 1: YLPEFSWPESFVLFLRQRQRQLGRGAE chain 2: YLPEFSWPESFVLFLRQRQRQLGRGAE", "Kd": 4.4}
{"biological_target": "T2, rat MuSK (rat, UniProt Q62838)", "T2 chain": "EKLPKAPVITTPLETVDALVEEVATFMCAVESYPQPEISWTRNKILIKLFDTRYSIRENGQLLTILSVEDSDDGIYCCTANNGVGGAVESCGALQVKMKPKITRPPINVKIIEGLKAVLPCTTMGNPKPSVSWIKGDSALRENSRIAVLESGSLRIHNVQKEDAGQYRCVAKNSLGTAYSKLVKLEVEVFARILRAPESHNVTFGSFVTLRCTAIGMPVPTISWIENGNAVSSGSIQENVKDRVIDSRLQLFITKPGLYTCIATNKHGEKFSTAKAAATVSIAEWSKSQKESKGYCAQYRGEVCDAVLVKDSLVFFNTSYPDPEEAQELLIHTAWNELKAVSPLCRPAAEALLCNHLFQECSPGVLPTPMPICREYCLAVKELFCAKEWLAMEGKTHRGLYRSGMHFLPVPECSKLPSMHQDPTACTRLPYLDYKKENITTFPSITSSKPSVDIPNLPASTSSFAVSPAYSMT", "assay": "SPR", "units": {"Kd": "nM"}}
{"binder": "MuSK7-pal (macrocyclic homodimer with palmitoyl group) chain 1: YPSYHTNVVASLKRC chain 2: YPSYHTNVVASLKRC", "Kd": 2}
{"biological_target": "T1, human MuSK", "assay": "SPR", "remark": "another data set of the same source", "units": {"Kd": "nM"}}
{"binder": "MuSK7-pal (macrocyclic homodimer with palmitoyl group) chain 1: YPSYHTNVVASLKRC chain 2: YPSYHTNVVASLKRC", "Kd": 0.9}
{"biological_target": "T1, human MuSK", "assay": "SPR", "remark": "another data set of the same source", "units": {"Kd": "nM"}}
{"binder": "{CH2CO}-YPSYHTNVVASLKRC (thioether N-15 (inferred); not fully specified (C-terminus))", "note": "[MuSK7]", "Kd": 160}
{"binder": "{CH2CO}-YFPTNVVSLLKSC (thioether N-13 (inferred); not fully specified (C-terminus))", "note": "[MuSK4]", "Kd": 250}
{"binder": "YLPEFSWPESFVLFLRQRQRQLGRGAE (also: name suffix Ac, meaning not given here)", "note": "[MuSK1Ac]", "Kd": 1.6}
{"binder": "YLPEFSWPESFVLFLRQRQRQLGRGAE (not fully specified (bridges); also: thioether macrocycle stated, places not given here)", "note": "[MuSK1]", "Kd": 2.2}
{"biological_target": "T3, mouse MuSK (mouse, UniProt Q61006)", "T3 chain": "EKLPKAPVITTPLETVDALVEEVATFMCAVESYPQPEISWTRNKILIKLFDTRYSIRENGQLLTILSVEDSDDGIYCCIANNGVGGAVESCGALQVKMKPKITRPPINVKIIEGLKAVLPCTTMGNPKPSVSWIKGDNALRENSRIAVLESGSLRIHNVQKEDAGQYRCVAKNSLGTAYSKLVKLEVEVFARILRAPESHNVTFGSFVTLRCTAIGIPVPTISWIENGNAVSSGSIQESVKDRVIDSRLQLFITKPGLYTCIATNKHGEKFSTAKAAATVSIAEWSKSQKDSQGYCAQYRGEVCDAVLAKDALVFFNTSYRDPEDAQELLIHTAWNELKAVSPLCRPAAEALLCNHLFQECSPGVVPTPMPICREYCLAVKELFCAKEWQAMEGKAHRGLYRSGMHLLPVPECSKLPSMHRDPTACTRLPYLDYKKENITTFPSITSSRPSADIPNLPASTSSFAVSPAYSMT", "assay": "SPR", "units": {"Kd": "nM"}}
{"binder": "MuSK7-pal (macrocyclic homodimer with palmitoyl group) chain 1: YPSYHTNVVASLKRC chain 2: YPSYHTNVVASLKRC", "Kd": 8.8}
